Assay results reported in patent US20250049939A1, “NOVEL FLT3 ANTIBODIES AND ANTIBODY-DRUG-CONJUGATES BASED THEREON, THERAPEUTIC METHODS AND USES THEREOF IN COMBINATION WITH TYROSINE KINASE INHIBITORS” (TUBULIS GmbH, priority 2021, published 2025).

How the values were obtained:
recombinant human FLT3 = target: T1, recombinant human FLT3 (Homo sapiens, UniProt P36888); test: ELISA affinity to recombinant human FLT3; assay type: binding; conditions: chimeric Ab clones
T1 construct: purchased Sino Biological 10445-H08H
T1 sequence (P36888 27-541 limits assumed): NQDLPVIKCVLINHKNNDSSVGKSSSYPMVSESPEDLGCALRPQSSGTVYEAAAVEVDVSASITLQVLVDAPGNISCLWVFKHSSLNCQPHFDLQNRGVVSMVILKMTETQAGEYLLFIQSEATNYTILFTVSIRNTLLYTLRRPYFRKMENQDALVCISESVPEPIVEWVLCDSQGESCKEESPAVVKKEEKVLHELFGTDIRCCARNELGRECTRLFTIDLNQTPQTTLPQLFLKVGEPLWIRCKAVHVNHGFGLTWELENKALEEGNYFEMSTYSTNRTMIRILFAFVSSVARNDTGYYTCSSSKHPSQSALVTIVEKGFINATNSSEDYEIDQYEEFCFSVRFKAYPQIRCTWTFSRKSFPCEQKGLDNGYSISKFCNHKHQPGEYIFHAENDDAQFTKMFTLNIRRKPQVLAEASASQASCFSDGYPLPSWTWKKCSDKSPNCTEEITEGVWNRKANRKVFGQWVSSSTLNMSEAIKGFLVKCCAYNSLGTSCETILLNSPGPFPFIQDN
From the text: FIG. 1: Evaluation of epitope specificity and internalization capability of anti-FLT3 monoclonal antibodies. (A) Affinity of seven anti-FLT3 monoclonal antibody (mab) clones to recombinant human FLT3 measured in enzyme-linked immunosorbent assay (ELISA) normalized to the binding of the antibodies to BSA control. […] (B) Schematic FLT3 receptor. Black arrows indicate common mutations and blue arrows indicate the three identified epitopes of seven anti-FLT3 antibodies analyzed in linear epitope mapping by PEPperPRINT. Figure was created with BioRender.com. (C) Binding and temperature induced internalization of anti-FLT3 antibodies in Ba/F3 cells expressing human wildtype FLT3. Internalization was induced by incubation for 30 min at 37° C. (grey) compared to 4° C. (black). Remaining surface-bound antibody was detected in flow cytometry. MFI was normalized to control human IgG1 binding. MFI=mean fluorescence intensity. […] (D) Cell surface binding of 20D9 mab or control human IgG1 antibody to Ba/F3 cells stably expressing pMIY (Ba/F3-pMIY) empty vector (ev), human wildtype (hFLT3 wt) or ITD mutant human FLT3 (hFLT3ITD) was measured in flow cytometry. Mean±s.d. of n=3. (E) Temperature induced internalization of 4B12 mab in MOLM-13 (FLT3 positive) cells after 30 min incubation at 37° C. compared to 4° C. and HL-60 (FLT3 negative) after 37° C. incubation assessed in immunofluorescence staining. Red=FLT3 staining by 4B12, Green=membrane staining by Vybrant DiO, Blue=nuclear staining by DAPI. Scale bar 5 μm. Representative pictures are shown. (F) Cell surface binding of 20D9 mab or control hIgG1 antibody to Ba/F3-pMIY ev, hFLT3 wt, murine (mFLT3 wt) or cynomolgues monkey FLT3 (cynoFLT3 wt) was measured in flow cytometry. Mean±s.d. of n=3. (G) Cell surface binding of 20D9 mab or control hIgG1 antibody to Ba/F3-PMIY ev, hFLT3 wt or epitope mutant FLT3 (hFLT3/S50P/P54R) measured in flow cytometry. Mean±s.d. of n=3. (H) Cell surface binding of 20D9 mab or control hIgG1 antibody to Ba/F3-PMIY ev, hFLT3 wt or human CD64 (hCD64) measured in flow cytometry. Mean±s.d. of n=3.
Maxisorp plates were coated with human recombinant FLT3 protein (10445-H08H, Sino Biological). Chimeric (20D9) or humanized anti-FLT3 monoclonal antibodies (in house) and secondary alkaline phosphatase conjugated rabbit anti-human IgG antibody (309-055-008, Jackson Immunoresearch) were used. For detection, Attophos Fluorescent Substrate System (S1000, Promega) was applied. The fluorescence was read with excitation of 405 nm and emission at 500-550 nm. The calculation of the dissociation constant KD was performed using GraphPad Prism version 9.4.0.

[1] = test system: MOLM-13 (FLT3 positive) cells; test: Temperature induced internalization in MOLM-13, flow cytometry; assay type: cell-based, human; conditions: 30 min at 37° C. compared to 4° C.
Method: For antibody binding studies, cells were stained on ice with primary mouse, rat or human anti-FLT3 antibodies (in house) and secondary antibody Goat F(ab′)2 Anti-Human Ig-PE (2012-09), Goat Anti-Mouse IgG (H+L)-PE (1032-09) or Goat Anti-Rat IgG (H+L)-PE (3052-09) purchased from Southern Biotech. For internalization experiments, cells incubated with anti-FLT3 antibodies were washed and incubated for 30 min at 4° C. or 37° C. followed by staining with secondary antibody.

[2] = target: T2, Ba/F3 cells expressing human wildtype FLT3 (Homo sapiens, UniProt P36888); test: Temperature induced internalization in Ba/F3-FLT3, flow cytometry; assay type: cell-based; conditions: 30 min at 37° C. compared to 4° C.
T2 construct: expressed in transfected cells; host or cells: Ba/F3 cells, retrovirally transduced with MSCV-IRES-YFP (pMIY) vector
T2 sequence (P36888 27-993): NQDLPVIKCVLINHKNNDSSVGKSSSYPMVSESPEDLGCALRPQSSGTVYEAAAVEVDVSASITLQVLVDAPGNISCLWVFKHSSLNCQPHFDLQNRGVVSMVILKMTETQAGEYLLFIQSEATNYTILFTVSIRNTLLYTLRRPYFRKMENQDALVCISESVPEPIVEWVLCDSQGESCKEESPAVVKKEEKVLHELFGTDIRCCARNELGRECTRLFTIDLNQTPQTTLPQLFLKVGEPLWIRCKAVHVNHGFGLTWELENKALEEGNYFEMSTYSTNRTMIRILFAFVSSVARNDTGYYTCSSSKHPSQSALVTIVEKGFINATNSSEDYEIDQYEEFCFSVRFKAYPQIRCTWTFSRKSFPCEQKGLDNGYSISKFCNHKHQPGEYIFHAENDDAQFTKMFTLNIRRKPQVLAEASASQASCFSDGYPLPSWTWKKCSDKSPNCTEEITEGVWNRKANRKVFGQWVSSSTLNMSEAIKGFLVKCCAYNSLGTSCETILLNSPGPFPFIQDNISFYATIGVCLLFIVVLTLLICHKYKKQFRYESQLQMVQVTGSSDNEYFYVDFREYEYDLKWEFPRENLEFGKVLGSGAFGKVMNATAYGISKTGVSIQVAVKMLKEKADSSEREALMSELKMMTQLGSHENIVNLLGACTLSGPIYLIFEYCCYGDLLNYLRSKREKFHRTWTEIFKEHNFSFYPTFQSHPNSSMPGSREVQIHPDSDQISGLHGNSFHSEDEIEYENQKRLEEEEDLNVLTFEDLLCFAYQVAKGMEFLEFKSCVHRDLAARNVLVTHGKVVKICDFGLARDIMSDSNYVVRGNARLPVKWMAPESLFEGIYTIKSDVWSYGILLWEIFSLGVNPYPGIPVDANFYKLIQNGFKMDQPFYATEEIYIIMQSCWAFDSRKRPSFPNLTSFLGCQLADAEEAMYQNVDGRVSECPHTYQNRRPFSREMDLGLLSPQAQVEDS
From the text: FIG. 1: Evaluation of epitope specificity and internalization capability of anti-FLT3 monoclonal antibodies. (A) Affinity of seven anti-FLT3 monoclonal antibody (mab) clones to recombinant human FLT3 measured in enzyme-linked immunosorbent assay (ELISA) normalized to the binding of the antibodies to BSA control. […] (B) Schematic FLT3 receptor. Black arrows indicate common mutations and blue arrows indicate the three identified epitopes of seven anti-FLT3 antibodies analyzed in linear epitope mapping by PEPperPRINT. Figure was created with BioRender.com. (C) Binding and temperature induced internalization of anti-FLT3 antibodies in Ba/F3 cells expressing human wildtype FLT3. Internalization was induced by incubation for 30 min at 37° C. (grey) compared to 4° C. (black). Remaining surface-bound antibody was detected in flow cytometry. MFI was normalized to control human IgG1 binding. MFI=mean fluorescence intensity. […] (D) Cell surface binding of 20D9 mab or control human IgG1 antibody to Ba/F3 cells stably expressing pMIY (Ba/F3-pMIY) empty vector (ev), human wildtype (hFLT3 wt) or ITD mutant human FLT3 (hFLT3ITD) was measured in flow cytometry. Mean±s.d. of n=3. (E) Temperature induced internalization of 4B12 mab in MOLM-13 (FLT3 positive) cells after 30 min incubation at 37° C. compared to 4° C. and HL-60 (FLT3 negative) after 37° C. incubation assessed in immunofluorescence staining. Red=FLT3 staining by 4B12, Green=membrane staining by Vybrant DiO, Blue=nuclear staining by DAPI. Scale bar 5 μm. Representative pictures are shown. (F) Cell surface binding of 20D9 mab or control hIgG1 antibody to Ba/F3-pMIY ev, hFLT3 wt, murine (mFLT3 wt) or cynomolgues monkey FLT3 (cynoFLT3 wt) was measured in flow cytometry. Mean±s.d. of n=3. (G) Cell surface binding of 20D9 mab or control hIgG1 antibody to Ba/F3-PMIY ev, hFLT3 wt or epitope mutant FLT3 (hFLT3/S50P/P54R) measured in flow cytometry. Mean±s.d. of n=3. (H) Cell surface binding of 20D9 mab or control hIgG1 antibody to Ba/F3-PMIY ev, hFLT3 wt or human CD64 (hCD64) measured in flow cytometry. Mean±s.d. of n=3. […]

Row | Molecule | Affinity Kd (recombinant human FLT3) [µg/mL] | Internalization in MOLM-13 [1] [%] | Internalization in Ba/F3-FLT3 [2] [%]
1 | 2F12: chimeric anti-FLT3 antibody from rat; VH SEQ ID NO: 7, VL SEQ ID NO: 8 (antibody, V domains shown, Clone 2F12, heavy chain variable region without a signal seqeunce; Clone 2F12, light chain variable region without a signal seqeunce) VH: EVKLEESGGGLVQPGGSMKLSCVASGFTFSNYWMNWVRQSPEKGLEWVAQIRLKSDNYATHYAESVKGRFTISRDDSKDSVYLQMNNLRAEDTGIYYCAVSLARSDYWGQGTTLTVSSA VL: DVVMTQSPPSLSASLGDKVTITCQASQNINKYIAWYQQKPGKAPRLLIRYTSTLESGTPSRFSGSGSGRDFSFSISNVESEDIASYYCLQYVNLPRTFGGGTKLELKR | 3.981 | 12 | 26
2 | 19H5: chimeric anti-FLT3 antibody from rat; VH SEQ ID NO: 17, VL SEQ ID NO: 18 (antibody, V domains shown, Clone 19H5, heavy chain variable region without a signal seqeunce; Clone 19H5, light chain variable region without a signal seqeunce) VH: MVQPSQTLSLTCTVSGFSLTSYNVNWVRQPPGKGLEWIGAMWRGGGTDYNPALKSRLSISRDTSKSQVFLKMNRLQTEDTAIYFCTRGFGDYWGQGVMVTVSSA VL: DVQMTQSPSSMSASLGDRVTFTCQASQDIGNNLIYFQQKPGKSPRRMICCATNLAHGVPSRFSGSRSGSDYSLTLVSLESEDVADYHCLQYEHYPRTFGGGTKLELKR | 0.1339 | – | –
